We go through 20 proteins from patent publication US20250115889A1 (DENTERIC, published 2025).

The labels stand for the following.
B1: DUF (other)
chain: AEGSREVKRIGDGLFVTIEPANDVRANEAKVVLAADNVWGDNTGYQFLLDADHNTFGSVIPATGPLFTGTASSNLYSANFEYLIPANADPVVTTQNIIVTGQGEVVIPGGVYDYCITNPEPASGKMWIAGDGGNQPARYDDFTFEAGKKYTFTMRRAGMGDGTDM
notes: also called DUF2436 domain; not shown: C-terminal His tag
B2: DUF-ABM213 (other)
chain: AEGSREVKRIGDGLFVTIEPANDVRANEAKVVLAADNVWGDNTGYQFLLDADHNTFGSVIPATGPLFTGTASSNLYSANFEYLIPANADPVVTTQNIIVTGQGEVVIPGGVYDYCITNPEPASGKMWIAGDGGNQPARYDDFTFEAGKKYTFTMRRAGMGDGTDMEVEDDSPASYTYTVYRDGTKIKEGLTATTFEEDGVAAGNHEYCVEVKYTAGVSPKVCKDVTVEGSNEFAPVQNLTGSSVGQKVTLKWDAPNGTPNPNPNPNPNPGT
notes: also called DUF2436 domain plus ABMs
B3: KDAK1n-4S-AVQP (other)
chain: NTGVSFANYTAHGSETAWADPLLTTSQLKALTNKDKAEGSREVKRIGDGLFVTIEPANDVRANEAKVVLAADNVWGDNTGYQFLLDADHNTFGSVIPATGPLFTGTASSNLYSANFEYLIPANADPVVTTQNIIVTGQGEVVIPGGVYDYSITNPEPASGKMWIAGDGGNQPARYDDFTFEAGKKYTFTMRRAGMGDGTDMEVEDDSPASYTYTVYRDGTKIKEGLTATTFEEDGVAAGNHEYSVEVKYTAGVSPKVSKDVTVEGSNEFAAVQPLTGSSVGQKVTLKWDAPNGTPNPNPNPNPNPGTTLSESFENGIPASWKTIDADGDGHGWKPGNAPGIAGYNSNGSVYSESFGLGGIGVLTPDNYLITPALDLPNGG
notes: also called KDAK1n mutant
B4: rABM21-AVQP (other)
chain: ASYTYTVYRDGTKIKEGLTATTFEEDGVAAGNHEYCVEVKYTAGVSPKVCKDVTVEGSNEFAAVQPLTGSSVGQKVTLKWDAPN
B5: rABM21-AVQA-2X Cys > Ser (other)
chain: ASYTYTVYRDGTKIKEGLTATTFEEDGVAAGNHEYSVEVKYTAGVSPKVSKDVTVEGSNEFAAVQALTGSSVGQKVTLKWDAPN
B6: rABM21-AVQN (other)
chain: ASYTYTVYRDGTKIKEGLTATTFEEDGVAAGNHEYCVEVKYTAGVSPKVCKDVTVEGSNEFAAVQNLTGSSVGQKVTLKWDAPN
B7: rABM21 (other)
chain: ASYTYTVYRDGTKIKEGLTATTFEEDGVAAGNHEYCVEVKYTAGVSPKVCKDVTVEGSNEFAPVQNLTGSSVGQKVTLKWDAPN
notes: also called recombinant ABM21; recombinant protein encoding ABM2(1) and ABM1(2)
B8: rABM21-AVQA (other)
chain: ASYTYTVYRDGTKIKEGLTATTFEEDGVAAGNHEYCVEVKYTAGVSPKVCKDVTVEGSNEFAAVQALTGSSVGQKVTLKWDAPN
B9: rABM21--Y > A (other)
chain: ASYTATVYRDGTKIKEGLTATTFEEDGVAAGNHEYCVEVKYTAGVSPKVCKDVTVEGSNEFAPVQNLTGSSVGQKVTLKWDAPN
B10: rABM21-SSEYQ (other)
chain: ASYTYTVYRDGTKIKEGLTATTFEEDGVAAGNHEYCVEVKYTAGVSPKVCKDVTVEGSSEYQPVQNLTGSSVGQKVTLKWDAPNGT
notes: also called SSEYQ variant
B11: rABM21-Y > A/W > A (other)
chain: ASYTATVYRDGTKIKEGLTATTFEEDGVAAGNHEYCVEVKYTAGVSPKVCKDVTVEGSNEFAPVQNLTGSSVGQKVTLKADAPNGT
B12: rABM213 (other)
chain: ASYTYTVYRDGTKIKEGLTATTFEEDGVAAGNHEYCVEVKYTAGVSPKVCKDVTVEGSNEFAPVQNLTGSSVGQKVTLKWDAPNGTPNPNPNPNPNPGT
notes: also called recombinant protein encoding ABM2(1), ABM1(2) and ABM3
B13: KDcAK1n-4S (other)
chain: NTGVSFANYTAHGSETAWADPLLTTSQLKALTNKDKWGDNTGYQFLLDADHNTFGSVIPATGPLFTGTASSNLYSANFEYLIPANADPVVTTQNIIVTGQGEVVIPGGVYDYSITNPEPASGKMWIAGDGGNQPARYDDFTFEAGKKYTFTMRRAGMGDGTDMEVEDDSPASYTYTVYRDGTKIKEGLTATTFEEDGVAAGNHEYSVEVKYTAGVSPKVSKDVTVEGSNEFAPVQNLTGSSVGQKVTLKWDAPNGTPNPNPNPNPNPGTTLSESFENGIPASWKTIDADGDGHGWKPGNAPGIAGYNSNGSVYSESFGLGGIGVLTPDNYLITPALDLPNGG
notes: also called chimera with all four Cysteine residues mutated to Serine
B14: KDcAK1n-4S-AVQP (other)
chain: NTGVSFANYTAHGSETAWADPLLTTSQLKALTNKDKWGDNTGYQFLLDADHNTFGSVIPATGPLFTGTASSNLYSANFEYLIPANADPVVTTQNIIVTGQGEVVIPGGVYDYSITNPEPASGKMWIAGDGGNQPARYDDFTFEAGKKYTFTMRRAGMGDGTDMEVEDDSPASYTYTVYRDGTKIKEGLTATTFEEDGVAAGNHEYSVEVKYTAGVSPKVSKDVTVEGSNEFAAVQPLTGSSVGQKVTLKWDAPNGTPNPNPNPNPNPGTTLSESFENGIPASWKTIDADGDGHGWKPGNAPGIAGYNSNGSVYSESFGLGGIGVLTPDNYLITPALDLPNGG
notes: also called KDcAKIn-4S-AVQP; KDcAK1n PVQN>AVQP/4 Cys>Ser variant
B15: rABM21-2XCys > Ser (other)
chain: ASYTYTVYRDGTKIKEGLTATTFEEDGVAAGNHEYSVEVKYTAGVSPKVSKDVTVEGSNEFAPVQNLTGSSVGQKVTLKWDAPN
B16: rABM21-AVQP-2X Cys > Ser (other)
chain: ASYTYTVYRDGTKIKEGLTATTFEEDGVAAGNHEYSVEVKYTAGVSPKVSKDVTVEGSNEFAAVQPLTGSSVGQKVTLKWDAPN
notes: also called ABM21-2S-AVQP
B17: KDcAK1n (prior art chimera) (other)
chain: NTGVSFANYTAHGSETAWADPLLTTSQLKALTNKDKWGDNTGYQFLLDADHNTFGSVIPATGPLFTGTASSNLYSANFEYLIPANADPVVTTQNIIVTGQGEVVIPGGVYDYCITNPEPASGKMWIAGDGGNQPARYDDFTFEAGKKYTFTMRRAGMGDGTDMEVEDDSPASYTYTVYRDGTKIKEGLTATTFEEDGVAAGNHEYCVEVKYTAGVSPKVCKDVTVEGSNEFAPVQNLTGSSVGQKVTLKWDAPNGTPNPNPNPNPNPGTTLSESFENGIPASWKTIDADGDGHGWKPGNAPGIAGYNSNGCVYSESFGLGGIGVLTPDNYLITPALDLPNGG
notes: also called original chimera
B18: KDcAK1nK (other)
chain: NTGVSFANYTAHGSETAWADPLLTTSQLKALTNKDKWGDNTGYQFLLDADHNTFGSVIPATGPLFTGTASSNLYSANFEYLIPANADPVVTTQNIIVTGQGEVVIPGGVYDYCITNPEPASGKMWIAGDGGNQPARYDDFTFEAGKKYTFTMRRAGMGDGTDMEVEDDSPASYTYTVYRDGTKIKEGLTATTFEEDGVAAGNHEYCVEVKYTAGVSPKVCKDVTVEGSNEFAPVQNLTGSSVGQKVTLKWDAPNGTPNPNPNPNPNPGTTLSESFENGIPASWKTIDADGDGHGWKPGNAPGIAGYNSNGCVYSESFGLGGIGVLTPDNYLITPALDLPNGGNTGVSFANYTAHGSETAWADPLLTTSQLKALTNKDK
B19: KDAK1nK (other)
chain: NTGVSFANYTAHGSETAWADPLLTTSQLKALTNKDKAEGSREVKRIGDGLFVTIEPANDVRANEAKVVLAADNVWGDNTGYQFLLDADHNTFGSVIPATGPLFTGTASSNLYSANFEYLIPANADPVVTTQNIIVTGQGEVVIPGGVYDYCITNPEPASGKMWIAGDGGNQPARYDDFTFEAGKKYTFTMRRAGMGDGTDMEVEDDSPASYTYTVYRDGTKIKEGLTATTFEEDGVAAGNHEYCVEVKYTAGVSPKVCKDVTVEGSNEFAPVQNLTGSSVGQKVTLKWDAPNGTPNPNPNPNPNPGTTLSESFENGIPASWKTIDADGDGHGWKPGNAPGIAGYNSNGCVYSESFGLGGIGVLTPDNYLITPALDLPNGGNTGVSFANYTAHGSETAWADPLLTTSQLKALTNKDK
B20: KDAK1n (other)
chain: NTGVSFANYTAHGSETAWADPLLTTSQLKALTNKDKAEGSREVKRIGDGLFVTIEPANDVRANEAKVVLAADNVWGDNTGYQFLLDADHNTFGSVIPATGPLFTGTASSNLYSANFEYLIPANADPVVTTQNIIVTGQGEVVIPGGVYDYCITNPEPASGKMWIAGDGGNQPARYDDFTFEAGKKYTFTMRRAGMGDGTDMEVEDDSPASYTYTVYRDGTKIKEGLTATTFEEDGVAAGNHEYCVEVKYTAGVSPKVCKDVTVEGSNEFAPVQNLTGSSVGQKVTLKWDAPNGTPNPNPNPNPNPGTTLSESFENGIPASWKTIDADGDGHGWKPGNAPGIAGYNSNGCVYSESFGLGGIGVLTPDNYLITPALDLPNGG

The first data set concerns the molecule itself. The data set is described as follows: column 'Multimer [yes/no]'; self-association.
Consider B1, for which the binding result is “no binding”.
B2: the binding result is reported as “binds”.
For B3, the binding result is listed as “no binding”.

The next data set deals with the molecule itself. As to the kind of experiment: Native PAGE without DTT; self-association (ability to form multimers).
As for B4, the binding result is recorded as “binds”.
Consider B5, for which the binding result was “binds”.
In the case of B6, the binding result is recorded as “binds”.
For B7, the binding result was “binds”.
On the same count and under the same terms, as for B8, the entry is “binds”.
Still for that read-out and setting: the result for B9 reads “binds”; that for B10, “binds”; that for B11, “no binding”.
Same read-out and setting: as for B12, the entry is “binds”.

The next data set concerns the molecule itself. As to the kind of experiment: native PAGE with and without DTT, self-association (multimer ladder).
As to B13, the binding result is given as “binds”.
B14: the binding result was “no binding”.
Same read-out and setting: the result for B15 reads “binds”; that for B16, “no binding”.

The next data set concerns the molecule itself. As to the kind of experiment: native PAGE of small scale purified protein, self-association (multimers).
Turning to B17, the binding result was “binds”.

A further data set concerns the molecule itself. The data set is described as follows: native PAGE of small scale purified protein, self-association (multimer bands).
For the protein B18, the binding result was “binds”.

The next data set deals with the molecule itself. The data set is described as follows: native PAGE of small scale purified protein, self-association (multimer ladder).
As for B19, the binding result is “binds”.
On to B20, for which the binding result is recorded as “binds”.
